{"source": "patent US20210063414A1", "about": "“METHODS FOR PREVENTING AND/OR TREATING BONE LOSS CONDITIONS BY MODULATING IRISIN” (Dana-Farber Cancer Institute, Inc., priority 2018, published 2021)", "molecules": {"B1": {"name": "irisin: secreted cleaved form of FNDC5; recombinant human/mouse irisin with C-terminal his tag produced in HEK293 cells (protein)", "chain": "DSPSAPVNVTVRHLKANSAVVSWDVLEDEVVIGFAISQQKKDVRMLRFIQEVNTTTRSCALWDLEEDTEYIVHVQAISIQGQSPASEPVLFKTPREAEKMASKNKDEVTMKE", "modifications": "left off: small tags and cut ends", "notes": "secreted cleaved form of FNDC5; recombinant human/mouse irisin with C-terminal his tag produced in HEK293 cells"}}, "experiment_in_all_cases": "Crosslinking/co-immunoprecipitation/mass spectrometry (TMT quantitative proteomics) to identify irisin receptors", "type_in_all_cases": "binding", "key": {"[1]": {"target": "T1, MLO-Y4 cell surface proteins (Mus musculus, UniProt P62960)", "T1 construct": "endogenous in cells; host or cells: MLO-Y4", "T1 sequence (P62960 whole entry, the tested form may be a part)": "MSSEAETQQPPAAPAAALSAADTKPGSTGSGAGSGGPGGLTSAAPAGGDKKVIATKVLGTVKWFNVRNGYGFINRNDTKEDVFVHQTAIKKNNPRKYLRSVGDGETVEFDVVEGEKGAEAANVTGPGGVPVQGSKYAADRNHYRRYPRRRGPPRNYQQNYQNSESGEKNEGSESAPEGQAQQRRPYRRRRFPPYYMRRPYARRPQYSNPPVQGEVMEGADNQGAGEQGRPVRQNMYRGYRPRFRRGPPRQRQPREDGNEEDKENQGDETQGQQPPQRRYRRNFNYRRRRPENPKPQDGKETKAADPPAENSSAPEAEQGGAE", "settings": "co-precipitated protein Ybx1 (YBOX1_MOUSE)", "summary_of_the_method": "(§1)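 Relative protein abundance came from 6-plex TMT MS3 quantitation on an Orbitrap Fusion Lumos, after in-gel trypsin digestion of Coomassie-stained SDS-PAGE lanes. Input was a Ni-NTA pulldown (250 mM imidazole elution) of lysates from murine MLO-Y4 cells. These cells were treated on ice with His-tagged irisin or adipsin (10 nM, 20 min) in serum-free medium, then crosslinked with 1.5 mM DTSSP for 30 min.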"}, "[2]": {"target": "T2, MLO-Y4 cell surface proteins (Mus musculus, UniProt C0HKE1)", "T2 construct": "endogenous in cells; host or cells: MLO-Y4", "settings": "co-precipitated protein Hist1h2ab (H2A1_MOUSE)", "summary_of_the_method": "as §1"}, "[3]": {"target": "T3, MLO-Y4 cell surface proteins (Mus musculus, UniProt Q99LC5)", "T3 construct": "endogenous in cells; host or cells: MLO-Y4", "T3 sequence (Q99LC5 20-333)": "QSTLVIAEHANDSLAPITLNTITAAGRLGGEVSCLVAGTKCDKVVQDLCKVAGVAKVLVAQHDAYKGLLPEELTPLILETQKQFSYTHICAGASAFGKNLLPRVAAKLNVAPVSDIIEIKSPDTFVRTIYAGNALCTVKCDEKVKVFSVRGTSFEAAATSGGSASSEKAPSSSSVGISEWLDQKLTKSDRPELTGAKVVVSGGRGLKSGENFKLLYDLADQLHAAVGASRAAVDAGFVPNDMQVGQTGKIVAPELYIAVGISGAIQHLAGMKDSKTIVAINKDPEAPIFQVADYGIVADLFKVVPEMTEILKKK", "settings": "co-precipitated protein Etfa (ETFA_MOUSE)", "summary_of_the_method": "as §1"}, "[4]": {"target": "T4, MLO-Y4 cell surface proteins (Mus musculus, UniProt P59999)", "T4 construct": "endogenous in cells; host or cells: MLO-Y4", "settings": "co-precipitated protein Atpc4 (ARPC4_MOUSE)", "summary_of_the_method": "as §1"}, "[5]": {"target": "T5, MLO-Y4 cell surface proteins (Mus musculus, UniProt P56567)", "T5 construct": "endogenous in cells; host or cells: MLO-Y4", "T5 sequence (P56567 1-97)": "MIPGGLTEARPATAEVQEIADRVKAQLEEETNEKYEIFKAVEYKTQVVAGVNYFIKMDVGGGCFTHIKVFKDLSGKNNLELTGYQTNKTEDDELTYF", "settings": "co-precipitated protein Csta (CYTA_MOUSE)", "summary_of_the_method": "as §1"}, "[6]": {"target": "T6, MLO-Y4 cell surface proteins (Mus musculus, UniProt Q62028)", "T6 construct": "endogenous in cells; host or cells: MLO-Y4", "T6 sequence (Q62028 27-1487)": "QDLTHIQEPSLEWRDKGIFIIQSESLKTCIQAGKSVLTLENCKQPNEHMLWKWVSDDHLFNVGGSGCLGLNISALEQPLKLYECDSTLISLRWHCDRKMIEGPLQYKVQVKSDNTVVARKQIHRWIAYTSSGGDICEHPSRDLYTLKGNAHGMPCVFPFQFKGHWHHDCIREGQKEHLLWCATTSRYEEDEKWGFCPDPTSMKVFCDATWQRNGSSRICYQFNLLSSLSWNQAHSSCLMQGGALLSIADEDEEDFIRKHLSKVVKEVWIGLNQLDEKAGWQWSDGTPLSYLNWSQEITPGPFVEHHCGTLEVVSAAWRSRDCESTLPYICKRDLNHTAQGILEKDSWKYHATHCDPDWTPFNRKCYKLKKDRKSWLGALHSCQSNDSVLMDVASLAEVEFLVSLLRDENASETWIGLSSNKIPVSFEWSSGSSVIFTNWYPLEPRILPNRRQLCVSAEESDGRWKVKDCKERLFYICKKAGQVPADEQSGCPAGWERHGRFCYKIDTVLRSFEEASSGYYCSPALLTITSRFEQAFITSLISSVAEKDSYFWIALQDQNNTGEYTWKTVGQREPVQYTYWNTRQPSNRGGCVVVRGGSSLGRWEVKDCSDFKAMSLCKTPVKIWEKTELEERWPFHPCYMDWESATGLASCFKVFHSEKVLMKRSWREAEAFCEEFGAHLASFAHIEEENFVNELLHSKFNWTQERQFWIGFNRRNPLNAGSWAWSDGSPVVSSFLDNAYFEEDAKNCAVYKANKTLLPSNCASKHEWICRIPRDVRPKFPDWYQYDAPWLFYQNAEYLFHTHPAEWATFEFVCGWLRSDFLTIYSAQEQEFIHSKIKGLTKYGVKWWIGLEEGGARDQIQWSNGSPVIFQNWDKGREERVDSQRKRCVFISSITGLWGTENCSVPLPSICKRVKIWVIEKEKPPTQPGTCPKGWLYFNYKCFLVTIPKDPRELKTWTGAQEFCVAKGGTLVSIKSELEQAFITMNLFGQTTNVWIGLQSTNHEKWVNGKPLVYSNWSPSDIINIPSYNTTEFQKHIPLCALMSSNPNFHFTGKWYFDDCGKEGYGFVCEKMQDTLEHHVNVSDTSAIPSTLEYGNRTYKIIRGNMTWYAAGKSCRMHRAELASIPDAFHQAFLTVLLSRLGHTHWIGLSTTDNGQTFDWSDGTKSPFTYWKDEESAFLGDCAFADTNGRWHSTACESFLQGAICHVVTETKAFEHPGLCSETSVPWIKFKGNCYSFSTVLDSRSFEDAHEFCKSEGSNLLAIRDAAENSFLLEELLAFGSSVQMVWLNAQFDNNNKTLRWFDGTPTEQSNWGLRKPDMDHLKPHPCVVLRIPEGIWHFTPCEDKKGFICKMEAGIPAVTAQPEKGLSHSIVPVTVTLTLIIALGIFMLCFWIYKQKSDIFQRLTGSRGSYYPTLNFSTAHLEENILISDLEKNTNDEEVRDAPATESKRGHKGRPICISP", "settings": "co-precipitated protein Pla2r1 (PLA2R_MOUSE)", "summary_of_the_method": "as §1"}}}
{"molecule": "B1", "values": [{"measurement": "irisin/adipsin TMT signal-to-noise ratio", "setting": "[1]", "value": 0.277}, {"measurement": "TMT signal-to-noise ratio", "setting": "[2]", "value": 119.978}, {"measurement": "irisin/adipsin TMT signal-to-noise ratio", "setting": "[2]", "value": 0.438}, {"measurement": "TMT signal-to-noise ratio", "setting": "[3]", "value": 44.9816}, {"measurement": "irisin/adipsin TMT signal-to-noise ratio", "setting": "[3]", "value": 0.561}, {"measurement": "TMT signal-to-noise ratio", "setting": "[4]", "value": 74.075}, {"measurement": "irisin/adipsin TMT signal-to-noise ratio", "setting": "[4]", "value": 0.536}, {"measurement": "TMT signal-to-noise ratio", "setting": "[5]", "value": 2.132}, {"measurement": "irisin/adipsin TMT signal-to-noise ratio", "setting": "[5]", "value": 0.013}, {"measurement": "TMT signal-to-noise ratio", "setting": "[6]", "value": 142.778}, {"measurement": "irisin/adipsin TMT signal-to-noise ratio", "setting": "[6]", "value": 0.275}]}
